Results published in PMC3393750, “Small Molecule Inhibitors of the LEDGF Site of Human Immunodeficiency Virus Integrase Identified by Fragment Screening and Structure Based Design” (PLoS ONE, 2012).

B1: Hexa-His tagged full length HIV IN (enzyme)
chain: FLDGIDKAQEEHEKYHSNWRAMASDFNLPPVVAKEIVASCDKCQLKGEAMHGQVDCSPGIWQLDCTHLEGKVILVAVHVASGYIEAEVIPAETGQETAYFLLKLAGRWPVKTVHTDNGSNFTSTTVKAACWWAGIKQEFGIPYNPQSQGVIESMNKELKKIIGQVRDQAEHLKTAVQMAVFIHNFKRKGGIGGYSAGERIVDIIATDIQTKELQKQITKIQNFRVYYRDSRDPVWKGPAKLLWKGEGAVVIQDNSDIKVVPRRKAKIIRDYGKQMAGDDCVASRQDED
notes: HIV-1 integrase, the cut product of the Gag-Pol polyprotein; also called His6-tagged IN; HIV integrase; source: E. coli BL21(DE3), purified (nickel HiTrap column)
B2: Untagged LEDGF (natural protein)
chain: not shown
notes: lens epithelium derived growth factor (LEDGF/p75), coded by the PSIP1 gene; source: E. coli, purified as described for FLAG-LEDGF

Assays:
[1] = target: T1, FLAG epitope tagged LEDGF protein (UniProt O75475 1-530); test: AlphaScreen or HTRF; His6-tagged IN (30 nM) on Ni-chelate donor beads, Flag-tagged LEDGF (30 nM) on anti-FLAG acceptor beads; 25 mM Tris-Cl pH 7.5, 25 mM NaCl, 5 mM MnCl2, 5 mM MgCl2, 5 mM BME, 50 ug/ml BSA, 0.05% Tween-20; 1 hour at 30°C; competition with untagged LEDGF; settings: both partners purified
T1 construct: lens epithelium derived growth factor (LEDGF/p75), coded by the PSIP1 gene; also called FLAG-LEDGF; Flag-tagged LEDGF; source: E. coli BL21(DE3), purified (heparin column, SP column); not shown: FLAG, N-terminal, kept

[2] = target: B1; test: as above; settings: both partners purified

Row | Binder | binding result [1] | percent reduction of the AlphaScreen signal at a 1:1 molar ratio with FLAG-LEDGF [2]
1 | B1 | binds | 
2 | B2 |  | 50%
